Consider one molecule from patent publication US20210405026A1 (CENTRE NATIONAL DE LA RECHERCHE SCIENTIFIQUE, published 2021).

One assay concerns the target T1, recombinant human CD32a (human, UniProt P12318 34-217).
T1 sequence: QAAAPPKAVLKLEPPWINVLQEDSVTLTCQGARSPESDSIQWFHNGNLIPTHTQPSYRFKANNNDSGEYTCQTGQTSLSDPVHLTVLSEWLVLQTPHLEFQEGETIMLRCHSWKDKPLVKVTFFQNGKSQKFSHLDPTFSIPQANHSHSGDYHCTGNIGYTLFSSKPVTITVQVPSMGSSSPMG
The assay can be described thus: ELISA on recombinant human CD32a, hybridoma screening. From the text: (§1) In order to develop a specific murine monoclonal antibody against Human CD32a using a peptide antigen […] (SEQ ID NO: 40), different criteria were taken into account when designing the peptide: (1) The peptide must not include residue # 167 submitted to a strong polymorphism; (2) The peptide should be specific for CD32a vs CD32b as much as possible to avoid cross-reactivity of anti-CD32a antibody with human CD32b. Thus, a first step was the selection, design and synthesis of a relevant peptide. In order to enhance the immune response, the peptide to carrier conjugation technique (KLH) was used. The peptide thus produced was used in the immunization of 5 mice with an optimized protocol of 45 to 74 days (4-6 injections). The immune response was monitored by bleeding and titration tests (ELISA against the peptide and recombinant human CD32a and CD32b in parallel). Following the results of these tests, the spleen cells from the best mouse were fused with a mouse myeloma cell line. The culture of the hybridomas obtained was carried out in selective medium before the screens for the selection at the polyclonal stage of specific hybridomas against the peptide in ELISA (10× 96-well plates). Further screening for clones positive against recombinant human CD32a and CD32b was performed in parallel. […]

For another assay, the target named is T2, recombinant human CD32b (human, UniProt P31994 46-217).
T2 sequence: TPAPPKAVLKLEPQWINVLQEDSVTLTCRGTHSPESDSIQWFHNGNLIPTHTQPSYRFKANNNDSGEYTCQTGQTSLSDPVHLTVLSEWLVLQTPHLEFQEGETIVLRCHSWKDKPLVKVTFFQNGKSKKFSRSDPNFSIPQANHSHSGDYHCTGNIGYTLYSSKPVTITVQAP
The assay can be described thus: ELISA on recombinant human CD32b, hybridoma screening.
Source text: as §1
(ELISA stands for enzyme-linked immunosorbent assay.)

B1: murine monoclonal anti-human CD32a antibody from hybridoma 8E2 (antibody, V domains shown)
VH: EVKLQESGPSLVQPGGSMNLSCVASGFTFSTHWMSWVRQSPEKGLEWIAEIRLKTDNYATHYAESVKGLFTISRDDSKSRLYLQMKSLRTEDSGIYYCTTHFAYWGQGTLV
VL: DVVMAQSPLSLPVSLGDQASISCRSSQSLVDSHGNTYLHWYLQKPGQSPKLLIYKVANRFSGVPDRFSGSGSGTDFTLKISRVEAEDLGVYFCSQSTHVPPVTFGAGTKLELK
notes: Tested as hybridoma supernatant in the ELISA screens
As to B1, the binding result is listed as “binds” in the assay with recombinant human CD32a and “no binding” with recombinant human CD32b.
